# Earlier results in paper PMC7221163.
# Target: insulin receptor (HIR) (Homo sapiens) (UniProt P06213)
# Assay: radioreceptor assay
# Sequence of insulin (P01308 90-110): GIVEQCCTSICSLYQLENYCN
substance,measurement,value
insulin (from UniProt P01308),Kd,1.2 nM
